Measurements as given in PMC6555819, “Comprehensive study of nuclear receptor DNA binding provides a revised framework for understanding receptor specificity”.

Target: RARg:RXRa (Homo sapiens, UniProt P13631;P19793 full;full)
Assay: no ligand; PBM; 270 nM : 90 nM RXRa; PBS pH 7.4, 2% milk, 0.02% Triton X-100, 1 mM DTT, BSA, 0.4 mg/ml salmon testes DNA
Details: tags: His kept;His cleaved; copies: 1;1; label: surface-attached array probe
Procedure, shortened: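 Binding z-scores take random background probes as their reference. They come from custom Agilent 4×180K protein-binding microarrays incubated 1 h with ligand-free nuclear receptor dimers, with antibodies against each partner (one per run) detecting binding. Scanned fluorescence was regression-normalized.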

Sequence of RARg:RXRa (P13631 whole entry, chain 1 of 2): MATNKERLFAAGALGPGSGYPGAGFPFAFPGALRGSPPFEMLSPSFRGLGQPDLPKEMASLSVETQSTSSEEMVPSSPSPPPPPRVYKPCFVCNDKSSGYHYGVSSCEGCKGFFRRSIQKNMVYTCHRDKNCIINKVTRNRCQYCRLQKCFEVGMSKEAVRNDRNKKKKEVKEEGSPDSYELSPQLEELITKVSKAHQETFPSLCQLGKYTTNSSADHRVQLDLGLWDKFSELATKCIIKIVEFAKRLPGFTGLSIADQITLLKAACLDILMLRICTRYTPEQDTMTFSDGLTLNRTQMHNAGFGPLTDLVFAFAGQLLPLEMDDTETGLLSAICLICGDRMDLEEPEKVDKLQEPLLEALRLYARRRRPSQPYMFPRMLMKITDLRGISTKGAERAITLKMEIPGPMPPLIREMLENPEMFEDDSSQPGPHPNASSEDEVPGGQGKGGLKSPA
Sequence of RARg:RXRa (P19793 whole entry, chain 2 of 2): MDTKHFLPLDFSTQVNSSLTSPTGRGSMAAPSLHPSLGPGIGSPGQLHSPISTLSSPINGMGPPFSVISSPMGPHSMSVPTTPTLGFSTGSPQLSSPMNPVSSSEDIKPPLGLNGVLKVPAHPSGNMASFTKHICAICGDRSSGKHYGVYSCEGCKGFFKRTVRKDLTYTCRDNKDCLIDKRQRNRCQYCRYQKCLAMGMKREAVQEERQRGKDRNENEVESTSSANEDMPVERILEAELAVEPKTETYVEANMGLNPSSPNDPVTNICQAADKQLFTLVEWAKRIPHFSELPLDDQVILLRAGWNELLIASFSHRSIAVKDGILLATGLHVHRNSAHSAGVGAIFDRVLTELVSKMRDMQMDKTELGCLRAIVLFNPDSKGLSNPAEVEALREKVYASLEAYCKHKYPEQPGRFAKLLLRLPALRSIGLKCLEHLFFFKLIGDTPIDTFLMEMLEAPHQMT

B1: NRC3_wobSeed28_DR1_T19A_o1 (dsDNA)
DNA 1: GCCCTACTGGGCCAAAGGACATTGATTCCAATGCTCGCGATTGACAGCGTAGAATGAAGG
DNA 2: CCTTCATTCTACGCTGTCAATCGCGAGCATTGGAATCAATGTCCTTTGGCCCAGTAGGGC
binding signal: 0.42 PBM z-score against 500 random probes

B2: NRC3_wobSeed28_DR1_T19C_o1 (dsDNA)
DNA 1: GCCCTACTGGGCCAAAGGCCATTGATTCCAATGCTCGCGATTGACAGCGTAGAATGAAGG
DNA 2: CCTTCATTCTACGCTGTCAATCGCGAGCATTGGAATCAATGGCCTTTGGCCCAGTAGGGC
binding signal: 0.32 PBM z-score against 500 random probes

B3: NRC3_wobSeed10_DR0_A9T_o1 (dsDNA)
DNA 1: GCATCGAATGGTCGAGGTGAGTATAGAGAAAGGGAAGCGATTGACAGCGTAGAATGAAGG
DNA 2: CCTTCATTCTACGCTGTCAATCGCTTCCCTTTCTCTATACTCACCTCGACCATTCGATGC
binding signal: 0.4 PBM z-score against 500 random probes

B4: NRC3_wobSeed39_DR1_G17A_o1 (dsDNA)
DNA 1: GCCGAACTAGGTCAAAAGACAGTGAAAGGCGACGTAGCGATTGACAGCGTAGAATGAAGG
DNA 2: CCTTCATTCTACGCTGTCAATCGCTACGTCGCCTTTCACTGTCTTTTGACCTAGTTCGGC
binding signal: 3.41 PBM z-score against 500 random probes

B5: NRC3_wobSeed112_DR4_G5T_o1 (dsDNA)
DNA 1: GCTATCCTAGGTCAGATCGGGCCAGTATACGCTATAGCGATTGACAGCGTAGAATGAAGG
DNA 2: CCTTCATTCTACGCTGTCAATCGCTATAGCGTATACTGGCCCGATCTGACCTAGGATAGC
binding signal: 3.16 PBM z-score against 500 random probes

B6: NRC3_wobSeed123_DR5_G21T_o1 (dsDNA)
DNA 1: GCCCTCGGAGGACAACAGGATGTCAGAGCTGCCAGAGCGATTGACAGCGTAGAATGAAGG
DNA 2: CCTTCATTCTACGCTGTCAATCGCTCTGGCAGCTCTGACATCCTGTTGTCCTCCGAGGGC
binding signal: 0.5 PBM z-score against 500 random probes

B7: NRC3_wobSeed62_DR2_T16G_o1 (dsDNA)
DNA 1: GCTCTGCTAGGTCAGGTGGTCAGCTAACGAGCTGCCGCGATTGACAGCGTAGAATGAAGG
DNA 2: CCTTCATTCTACGCTGTCAATCGCGGCAGCTCGTTAGCTGACCACCTGACCTAGCAGAGC
binding signal: 3.05 PBM z-score against 500 random probes

B8: NRC3_wobSeed101_DR4_C13A_o1 (dsDNA)
DNA 1: GCCCTTACGGGTAACTCCAGGTTATAGCATCGGAGTGCGATTGACAGCGTAGAATGAAGG
DNA 2: CCTTCATTCTACGCTGTCAATCGCACTCCGATGCTATAACCTGGAGTTACCCGTAAGGGC
binding signal: 0.35 PBM z-score against 500 random probes

B9: NRC3_wobSeed45_DR1_T11C_o1 (dsDNA)
DNA 1: GCTGTCAAAGCTCAAAGGTAACGTAAGTATCCACACGCGATTGACAGCGTAGAATGAAGG
DNA 2: CCTTCATTCTACGCTGTCAATCGCGTGTGGATACTTACGTTACCTTTGAGCTTTGACAGC
binding signal: 0.5 PBM z-score against 500 random probes

B10: NRC3_wobSeed135_DR5_C13G_o1 (dsDNA)
DNA 1: GCCGAACTAGGTGATTGACAGGACAGTGAATAGTAAGCGATTGACAGCGTAGAATGAAGG
DNA 2: CCTTCATTCTACGCTGTCAATCGCTTACTATTCACTGTCCTGTCAATCACCTAGTTCGGC
binding signal: 0.33 PBM z-score against 500 random probes

B11: NRC3_wobSeed82_DR3_G10C_o1 (dsDNA)
DNA 1: GCATCGAAACGTCGACGAGGTGAGTATACACCGTTTGCGATTGACAGCGTAGAATGAAGG
DNA 2: CCTTCATTCTACGCTGTCAATCGCAAACGGTGTATACTCACCTCGTCGACGTTTCGATGC
binding signal: 0.46 PBM z-score against 500 random probes

B12: NRC3_wobSeed99_DR4_G20C_o1 (dsDNA)
DNA 1: GCTCTCGGAGGACACGAAACGTCAGAGCTCGACATCGCGATTGACAGCGTAGAATGAAGG
DNA 2: CCTTCATTCTACGCTGTCAATCGCGATGTCGAGCTCTGACGTTTCGTGTCCTCCGAGAGC
binding signal: 0.45 PBM z-score against 500 random probes

B13: NRC3_wobSeed34_DR1_G17A_o1 (dsDNA)
DNA 1: GCATCGAAAGGTCGAAAGTGAGTATACCCACCCGAAGCGATTGACAGCGTAGAATGAAGG
DNA 2: CCTTCATTCTACGCTGTCAATCGCTTCGGGTGGGTATACTCACTTTCGACCTTTCGATGC
binding signal: 3.26 PBM z-score against 500 random probes

B14: NRC3_wobSeed58_DR2_A7T_o1 (dsDNA)
DNA 1: GCATCGTAAGGTCGTGAGGTGAGTATACAGAAAGGCGCGATTGACAGCGTAGAATGAAGG
DNA 2: CCTTCATTCTACGCTGTCAATCGCGCCTTTCTGTATACTCACCTCACGACCTTACGATGC
binding signal: 3.36 PBM z-score against 500 random probes

B15: NRC3_wobSeed16_DR0_G11T_o1 (dsDNA)
DNA 1: GCCAGCCTAGTTCAGGGCCAGTATAGGAGGAACGTTGCGATTGACAGCGTAGAATGAAGG
DNA 2: CCTTCATTCTACGCTGTCAATCGCAACGTTCCTCCTATACTGGCCCTGAACTAGGCTGGC
binding signal: 0.39 PBM z-score against 500 random probes

B16: NRC3_wobSeed63_DR2_G10A_o1 (dsDNA)
DNA 1: GCCGAACTAAGTCACCAGGACAGTGAAGAGGTTGGAGCGATTGACAGCGTAGAATGAAGG
DNA 2: CCTTCATTCTACGCTGTCAATCGCTCCAACCTCTTCACTGTCCTGGTGACTTAGTTCGGC
binding signal: 0.3 PBM z-score against 500 random probes

B17: NRC3_wobSeed72_DR2_A9G_o1 (dsDNA)
DNA 1: GCTCGAGTGGGTTACGGGGGCATTCAGGGATGAAGAGCGATTGACAGCGTAGAATGAAGG
DNA 2: CCTTCATTCTACGCTGTCAATCGCTCTTCATCCCTGAATGCCCCCGTAACCCACTCGAGC
binding signal: 3.31 PBM z-score against 500 random probes

B18: NRC3_wobSeed72_DR2_G17T_o1 (dsDNA)
DNA 1: GCTCGAGTAGGTTACGTGGGCATTCAGGGATGAAGAGCGATTGACAGCGTAGAATGAAGG
DNA 2: CCTTCATTCTACGCTGTCAATCGCTCTTCATCCCTGAATGCCCACGTAACCTACTCGAGC
binding signal: 0.43 PBM z-score against 500 random probes

B19: NRC3_wobSeed72_DR2_C15G_o1 (dsDNA)
DNA 1: GCTCGAGTAGGTTAGGGGGGCATTCAGGGATGAAGAGCGATTGACAGCGTAGAATGAAGG
DNA 2: CCTTCATTCTACGCTGTCAATCGCTCTTCATCCCTGAATGCCCCCCTAACCTACTCGAGC
binding signal: 3.1 PBM z-score against 500 random probes

B20: NRC3_wobSeed36_DR1_A16C_o1 (dsDNA)
DNA 1: GCCCGACTGGGGCAACGGTTACCATACTCAGTACGAGCGATTGACAGCGTAGAATGAAGG
DNA 2: CCTTCATTCTACGCTGTCAATCGCTCGTACTGAGTATGGTAACCGTTGCCCCAGTCGGGC
binding signal: 0.38 PBM z-score against 500 random probes

B21: NRC3_wobSeed57_DR2_T19G_o1 (dsDNA)
DNA 1: GCATCTCTAGGTAACAAGGTCAGTGAAAGAGAGGACGCGATTGACAGCGTAGAATGAAGG
DNA 2: CCTTCATTCTACGCTGTCAATCGCGTCCTCTCTTTCACTGACCTTGTTACCTAGAGATGC
binding signal: 3 PBM z-score against 500 random probes

B22: NRC3_wobSeed76_DR3_A16T_o1 (dsDNA)
DNA 1: GCCCTACTGGGCCAATAAGGTCATTGATGCCGATAAGCGATTGACAGCGTAGAATGAAGG
DNA 2: CCTTCATTCTACGCTGTCAATCGCTTATCGGCATCAATGACCTTATTGGCCCAGTAGGGC
binding signal: 3.2 PBM z-score against 500 random probes

B23: NRC3_wobSeed93_DR3_C13G_o1 (dsDNA)
DNA 1: GCAGTCAAAGTTGATCTAGGTAACGTAAGATATGCTGCGATTGACAGCGTAGAATGAAGG
DNA 2: CCTTCATTCTACGCTGTCAATCGCAGCATATCTTACGTTACCTAGATCAACTTTGACTGC
binding signal: 0.37 PBM z-score against 500 random probes

B24: NRC3_wobSeed125_DR5_A14C_o1 (dsDNA)
DNA 1: GCCCTTACGGGTCCCTGACAGGTTATAGCATTTGGAGCGATTGACAGCGTAGAATGAAGG
DNA 2: CCTTCATTCTACGCTGTCAATCGCTCCAAATGCTATAACCTGTCAGGGACCCGTAAGGGC
binding signal: 0.36 PBM z-score against 500 random probes
